Laboratory results published in article PMC2734569, “Functional mapping of the fission yeast DNA polymerase δ B-subunit Cdc1 by site-directed and random pentapeptide insertion mutagenesis” (BMC Molecular Biology, 2009).

What was measured:
Assay in all cases: two-hybrid; LexA-Cdc1 bait (pBTM116 or pBTM116BN) with Gal4-Pol3 prey and co-expressed c-myc-tagged Cdc27 (pAA-Cdc27) in S. cerevisiae CTY10-5d; ONPG liquid culture beta-galactosidase assay, mean of triplicates, as percent of wild-type Cdc1
Conditions in all cases: partners not purified
[1] = molecular target: T1, Cdc1-J12 (Schizosaccharomyces pombe, UniProt P87324 1-462, Ser-GlyValProHisSer-Ile)
T1 construct: Cdc1, S. pombe, with a pentapeptide inserted after residue 7; source: yeast two-hybrid fusion, in S. cerevisiae CTY10-5d
T1 sequence (looked up): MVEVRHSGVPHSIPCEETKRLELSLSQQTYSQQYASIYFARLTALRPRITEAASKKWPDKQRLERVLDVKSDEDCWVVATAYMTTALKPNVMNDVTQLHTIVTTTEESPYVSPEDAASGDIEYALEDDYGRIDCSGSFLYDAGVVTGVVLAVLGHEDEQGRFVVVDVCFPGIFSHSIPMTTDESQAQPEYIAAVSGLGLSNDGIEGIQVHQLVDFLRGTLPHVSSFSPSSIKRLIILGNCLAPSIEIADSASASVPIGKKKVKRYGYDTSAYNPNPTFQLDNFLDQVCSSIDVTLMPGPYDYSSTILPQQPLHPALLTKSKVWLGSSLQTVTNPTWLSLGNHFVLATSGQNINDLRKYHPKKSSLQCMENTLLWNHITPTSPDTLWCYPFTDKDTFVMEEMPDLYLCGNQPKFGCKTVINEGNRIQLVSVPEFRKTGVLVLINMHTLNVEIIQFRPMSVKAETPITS

[2] = molecular target: T2, Cdc1-J9 (Schizosaccharomyces pombe, UniProt P87324 1-462, Met-ArgGlyThrProMet-Thr)
T2 construct: Cdc1, S. pombe, with a pentapeptide inserted after residue 174; source: yeast two-hybrid fusion, in S. cerevisiae CTY10-5d
T2 sequence (looked up): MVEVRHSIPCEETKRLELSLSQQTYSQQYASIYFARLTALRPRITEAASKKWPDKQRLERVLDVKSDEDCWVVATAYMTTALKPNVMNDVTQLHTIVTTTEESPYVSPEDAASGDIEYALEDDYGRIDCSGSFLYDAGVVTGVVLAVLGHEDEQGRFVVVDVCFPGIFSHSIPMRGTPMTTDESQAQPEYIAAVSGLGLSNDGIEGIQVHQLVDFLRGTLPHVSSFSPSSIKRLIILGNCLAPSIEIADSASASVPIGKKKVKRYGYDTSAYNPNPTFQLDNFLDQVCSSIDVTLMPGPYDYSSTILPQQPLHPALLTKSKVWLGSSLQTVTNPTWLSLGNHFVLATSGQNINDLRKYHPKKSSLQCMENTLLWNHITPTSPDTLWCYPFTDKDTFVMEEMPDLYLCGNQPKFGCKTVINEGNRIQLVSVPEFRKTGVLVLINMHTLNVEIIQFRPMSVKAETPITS

[3] = molecular target: T3, Cdc1-J10 (Schizosaccharomyces pombe, UniProt P87324 1-462, Tyr-ArgGlyThrProTyr-Met)
T3 construct: Cdc1, S. pombe, with a pentapeptide inserted after residue 77; also called J11; E6; source: yeast two-hybrid fusion, in S. cerevisiae CTY10-5d
T3 sequence (looked up): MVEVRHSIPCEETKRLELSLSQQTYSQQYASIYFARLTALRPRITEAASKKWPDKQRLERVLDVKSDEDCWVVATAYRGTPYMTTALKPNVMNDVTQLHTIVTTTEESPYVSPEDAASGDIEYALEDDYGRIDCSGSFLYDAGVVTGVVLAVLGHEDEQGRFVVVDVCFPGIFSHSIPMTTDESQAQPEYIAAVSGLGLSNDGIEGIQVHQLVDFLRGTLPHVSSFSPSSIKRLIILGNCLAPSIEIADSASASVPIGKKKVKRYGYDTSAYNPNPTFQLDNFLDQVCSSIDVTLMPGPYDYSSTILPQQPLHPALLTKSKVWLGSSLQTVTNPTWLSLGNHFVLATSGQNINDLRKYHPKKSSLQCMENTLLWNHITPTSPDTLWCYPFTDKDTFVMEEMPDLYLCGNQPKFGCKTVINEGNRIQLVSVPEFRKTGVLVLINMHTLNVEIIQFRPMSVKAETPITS

[4] = molecular target: T4, Cdc1-A7 (Schizosaccharomyces pombe, UniProt P87324 1-462, Gly344Ala)
T4 construct: Cdc1, S. pombe, point mutant; source: yeast two-hybrid fusion, in S. cerevisiae CTY10-5d
T4 sequence (looked up): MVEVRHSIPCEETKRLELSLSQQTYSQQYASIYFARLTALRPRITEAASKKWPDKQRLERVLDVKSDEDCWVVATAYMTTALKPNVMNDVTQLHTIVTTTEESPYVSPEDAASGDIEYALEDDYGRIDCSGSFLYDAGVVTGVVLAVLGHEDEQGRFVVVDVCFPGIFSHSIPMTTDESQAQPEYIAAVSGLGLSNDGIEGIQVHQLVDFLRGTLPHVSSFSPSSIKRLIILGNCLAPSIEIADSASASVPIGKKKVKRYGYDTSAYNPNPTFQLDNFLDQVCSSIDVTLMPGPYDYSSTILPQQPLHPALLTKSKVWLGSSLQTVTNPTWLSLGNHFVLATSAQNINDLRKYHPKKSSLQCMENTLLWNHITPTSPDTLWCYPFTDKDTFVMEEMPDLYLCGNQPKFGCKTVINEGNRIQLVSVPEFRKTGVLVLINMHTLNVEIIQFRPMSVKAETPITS

B1: Pol3 (fission yeast DNA polymerase delta catalytic subunit) (natural protein, Schizosaccharomyces pombe, UniProt P30316 1-1086, looked up)
chain: MTDRSSNEGVVLNKENYPFPRRNGSIHGEITDVKRRRLSERNGYGDKKGSSSKEKTSSFEDELAEYASQLDQDEIKSSKDQQWQRPALPAINPEKDDIYFQQIDSEEFTEGSVPSIRLFGVTDNGNSILVHVVGFLPYFYVKAPVGFRPEMLERFTQDLDATCNGGVIDHCIIEMKENLYGFQGNEKSPFIKIFTTNPRILSRARNVFERGEFNFEELFPVGVGVTTFESNTQYLLRFMIDCDVVGMNWIHLPASKYQFRYQNRVSNCQIEAWINYKDLISLPAEGQWSKMAPLRIMSFDIECAGRKGVFPDPSIDPVIQIASIVTQYGDSTPFVRNVFCVDTCSQIVGTQVYEFQNQAEMLSSWSKFVRDVDPDVLIGYNICNFDIPYLLDRAKSLRIHNFPLLGRIHNFFSVAKETTFSSKAYGTRESKTTSIPGRLQLDMLQVMQRDFKLRSYSLNAVCSQFLGEQKEDVHYSIITDLQNGTADSRRRLAIYCLKDAYLPQRLMDKLMCFVNYTEMARVTGVPFNFLLARGQQIKVISQLFRKALQHDLVVPNIRVNGTDEQYEGATVIEPIKGYYDTPIATLDFSSLYPSIMQAHNLCYTTLLDSNTAELLKLKQDVDYSVTPNGDYFVKPHVRKGLLPIILADLLNARKKAKADLKKETDPFKKAVLDGRQLALKVSANSVYGFTGATNGRLPCLAISSSVTSYGRQMIEKTKDVVEKRYRIENGYSHDAVVIYGDTDSVMVKFGVKTLPEAMKLGEEAANYVSDQFPNPIKLEFEKVYFPYLLISKKRYAGLFWTRTDTYDKMDSKGIETVRRDNCPLVSYVIDTALRKMLIDQDVEGAQLFTKKVISDLLQNKIDMSQLVITKALSKTDYAAKMAHVELAERMRKRDAGSAPAIGDRVAYVIIKGAQGDQFYMRSEDPIYVLENNIPIDAKYYLENQLSKPLLRIFEPILGEKASSLLHGDHTRTISMAAPSVGGIMKFAVKVETCLGCKAPIKKGKTALCENCLNRSAELYQRQVAQVNDLEVRFARLWTQCQRCQGSMHQDVICTSRDCPIFYMRIAEHKKLQQSVDLLKRFDEMSW
notes: DNA polymerase delta catalytic subunit Pol3, S. pombe; prey plasmid named pACT-Pol3 in the results and pGAD2F-Pol3 in the methods; also called Gal4-Pol3; pACT-Pol3; source: yeast two-hybrid fusion, in S. cerevisiae CTY10-5d
- two-hybrid beta-galactosidase activity, % of wild-type Cdc1 [1]: < 1%
- two-hybrid beta-galactosidase activity, % of wild-type Cdc1 [2]: 91%
- two-hybrid beta-galactosidase activity, % of wild-type Cdc1 [3]: < 1%
- two-hybrid beta-galactosidase activity, % of wild-type Cdc1 [4]: 9%
